Molecular target: autotaxin (ENPP2/NPP2) (Homo sapiens, UniProt Q13822 Q13822:36-863)
Experiment: inhibition; LPA production, 0.10 uM aptamer, ~92% serum, 37C 3 h

Going from CCTGGACGGAACCAGAATACTTTTGGTCTCCAGG (ssDNA, 2'-OMe C7,G9,A14,G15,A19,C20,A32,G33,G34; PS after T18; idT 5' and 3') [12(101)] to CCTGGACGGAACCAGAATACTTTTGGTCTCCAGG (ssDNA, 2'-OMe C7,G9,A14,G15,A19,C20,A32,G33,G34; P-methyl G26; idT 5' and 3') [12(89)], the activity falls from 81 % inhibition to 48 % inhibition.

Compared with CCTGGACGGAACCAGAATACTTTTGGTCTCCAGG (ssDNA, 2'-OMe C7,G9,A14,G15,A19,C20,A32,G33,G34; PS after T21; idT 5' and 3') [12(103)], CCTGGACGGAACCAGAATACTTTTGGTCTCCAGG (ssDNA, 2'-OMe C7,G9,A14,G15,A19,C20,A32,G33,G34; PS after T23; idT 5' and 3') [12(87)] is lower in activity: 88 % inhibition for the first, 70 % inhibition for the second.

First: CCTGGACGGAACCAGAATACTTTTGGTCTCCAGG (ssDNA, 2'-OMe C7,G9,A14,G15,A19,C20,A32,G33,G34; PS after A10; idT 5' and 3') [12(78)]
Second: CCTGGACGGAACCAGAATACTTTTGGTCTCCAGG (ssDNA, 2'-OMe C7,G9,A14,G15,A19,C20,A32,G33,G34; P-methyl T29; idT 5' and 3') [12(96)]
The activity of the first is lower: 62 % inhibition for the first, 76 % inhibition for the second.

Compared with CCTGGACGGAACCAGAATACTTTTGGTCTCCAGG (ssDNA, 2'-OMe C7,G9,A14,G15,A19,C20,G33,G34; P-methyl A32; idT 5' and 3') [12(63)], CCTGGACGGAACCAGAATACTTTTGGTCTCCAGG (ssDNA, 2'-OMe C7,G9,A14,G15,A19,C20,A32,G33,G34; P-methyl C13; idT 5' and 3') [12(91)] is lower in activity: 59 % inhibition for the first, 58 % inhibition for the second.

Going from CCTGGACGGAACCAGAATACTTTTGGTCTCCAGG (ssDNA, 2'-OMe C7,G9,A14,G15,A19,C20,A32,G33,G34; P-methyl T21; idT 5' and 3') [12(123)] to CCTGGACGGAACCAGAATACTTTTGGTCTCCAGG (ssDNA, 2'-OMe C7,G9,A14,G15,A19,C20,A32,G33,G34; PS after T29; idT 5' and 3') [12(112)], the activity falls from 74 % inhibition to 69 % inhibition.

First: CCTGGACGGAACCAGAATACTTTTGGTCTCCAGG (ssDNA, 2'-OMe C7,G9,A14,G15,A19,C20,U23,A32,G33,G34; idT 5' and 3') [12(70)]
Second: CCTGGACGGAACCAGAATACTTTTGGTCTCCAGG (ssDNA, 2'-OMe C7,G9,A14,G15,A19,C20,A32,G33,G34; P-methyl C2; idT 5' and 3') [12(58)]
The activity of the first is lower: 9 % inhibition for the first, 69 % inhibition for the second.

Going from CCTGGACGGAACCAGAATACTTTTGGTCTCCAGG (ssDNA, 2'-OMe C7,G9,A14,G15,A19,C20,A32,G33,G34; P-methyl T3; idT 5' and 3') [12(129)] to CCTGGACGGAACCAGAATACTTTTGGTCTCCAGG (ssDNA, 2'-OMe C7,G9,A14,G15,A19,C20,A32,G33,G34; PS after C31; idT 5' and 3') [12(114)], the activity rises from 73 % inhibition to 75 % inhibition.

Going from CCTGGACGGAACCAGAATACTTTTGGTCTCCAGG (ssDNA, 2'-OMe C7,G9,A14,G15,A19,C20,A32,G33,G34; P-methyl T22; idT 5' and 3') [12(122)] to CCTGGACGGAACCAGAATACTTTTGGTCTCCAGG (ssDNA, 2'-OMe C7,G9,A14,G15,A19,C20,A32,G33,G34; PS after C7; idT 5' and 3') [12(106)], the activity rises from 65 % inhibition to 68 % inhibition.

Compared with CCTGGACGGAACCAGAATACTTTTGGTCTCCAGG (ssDNA, 2'-OMe C7,G9,A14,G15,A19,C20,A32,G33,G34; PS after C1; idT 5' and 3') [12(107)], CCTGGACGGAACCAGAATACTTTTGGTCTCCAGG (ssDNA, 2'-OMe C7,G9,A14,G15,A19,C20,A32,G33,G34; PS after A32; idT 5' and 3') [12(115)] is higher in activity: 75 % inhibition for the first, 77 % inhibition for the second.

First: CCTGGACGGAACCAGAATACTTTTGGTCTCCAGG (ssDNA, 2'-OMe C7,G9,A14,G15,A19,C20,A32,G33,G34; PS after C30; idT 5' and 3') [12(113)]
Second: CCTGGACGGAACCAGAATACTTTTGGTCTCCAGG (ssDNA, 2'-OMe C7,G9,A14,G15,A19,C20,A32,G33,G34; PS after G15; idT 5' and 3') [12(98)]
The activity of the first is lower: 66 % inhibition for the first, 76 % inhibition for the second.

Compared with CCTGGACGGAACCAGAATACTTTTGGTCTCCAGG (ssDNA, 2'-OMe C7,G9,A14,G15,A19,C20,A32,G33,G34; P-methyl C31; idT 5' and 3') [12(126)], CCTGGACGGAACCAGAATACTTTTGGTCTCCAGG (ssDNA, 2'-OMe C7,G9,A14,G15,A19,C20,A32,G33,G34; P-methyl C28; idT 5' and 3') [12(62)] is lower in activity: 77 % inhibition for the first, 75 % inhibition for the second.

First: CCTGGACGGAACCAGAATACTTTTGGTCTCCAGG (ssDNA, 2'-OMe C7,G9,A14,G15,A19,C20,A32,G33,G34; P-methyl T23; idT 5' and 3') [12(121)]
Second: CCTGGACGGAACCAGAATACTTTTGGTCTCCAGG (ssDNA, 2'-OMe C7,G9,A14,G15,A19,C20,A32,G33,G34; PS after G33; idT 5' and 3') [12(116)]
The activity of the first is higher: 80 % inhibition for the first, 72 % inhibition for the second.

Compared with CCTGGACGGAACCAGAATACTTTTGGTCTCCAGG (ssDNA, 2'-OMe C7,G9,A14,G15,A19,C20,A32,G33,G34; PS after C20; idT 5' and 3') [12(102)], CCTGGACGGAACCAGAATACTTTTGGTCTCCAGG (ssDNA, 2'-OMe C7,G9,A14,G15,A19,C20,A32,G33,G34; P-methyl C1; idT 5' and 3') [12(130)] is higher in activity: 72 % inhibition for the first, 77 % inhibition for the second.

First: CCTGGACGGAACCAGAATACTTTTGGTCTCCAGG (ssDNA, 2'-OMe C7,G9,A14,G15,A19,C20,A32,G33,G34; PS after T3; idT 5' and 3') [12(109)]
Second: CCTGGACGGAACCAGAATACTTTTGGTCTCCAGG (ssDNA, 2'-OMe C7,G9,A14,G15,A19,C20,A32,G33,G34; P-methyl T18; idT 5' and 3') [12(60)]
The activity of the first is higher: 68 % inhibition for the first, 50 % inhibition for the second.

Compared with CCTGGACGGAACCAGAATACTTTTGGTCTCCAGG (ssDNA, 2'-OMe U3,C7,G9,A14,G15,A19,C20,A32,G33,G34; idT 5' and 3') [12(68)], CCTGGACGGAACCAGAATACTTTTGGTCTCCAGG (ssDNA, 2'-OMe C7,G9,A14,G15,A19,C20,A32,G33,G34; PS after T22; idT 5' and 3') [12(104)] is higher in activity: 53 % inhibition for the first, 74 % inhibition for the second.

Work on CCTGGACGGAACCAGAATACTTTTGGTCTCCAGG (ssDNA, 2'-OMe C7,G9,A14,G15,A19,C20,A32,G33,G34; PS after A16; idT 5' and 3') [12(99)] yielded an activity of 81 % inhibition.

Reference: US20170137818, “APTAMER INHIBITING BIOLOGICAL ACTIVITY OF AUTOTAXIN BY BINDING WITH AUTOTAXIN, AND USE THEREOF” (RIBOMIC INC., published 2017)
